According to PMC9563126, “Identification of a flavonoid C-glycosyltransferase from fern species Stenoloma chusanum and the application in synthesizing flavonoid C-glycosides in Escherichia coli” (Microbial Cell Factories, 2022):
Numbering of substitutions follows the chain as printed. Names and notes keep the numbering of the source.

B1: ScCGT1 (Odontosoria chinensis) (protein)
chain: MASCDTGLLSDQRHHALMFPYPVQGHIQPFMRLSKLLATNYGFTISFFNSEENHRRLLADRDEPASQEDRAEDAEGKPLDFRMLFLPDVLPSSTEVEQMSAGTHIEKSHVLLSKTFLNTDPAALETLIRSQSPPITCLILDPLVTVIAPGLGEKLGITSLIFFPASAASLATAIRSGEVDGDAKQMTRIVGAPVLDVKEVNPFLSICGRGHSDFMARLFTQPFRKKLIKANDIILINTVEELEESTLKHLQEENKVCAIGPVLPPWGAFAVPTLWSQDYSCLDWLDKQPAASVLFVSFGSLATLSSTQLSDLALGLEASNQRILWVTRPDQIYGKAPDLPSDFLERIKDRILVFSWVPQLHVLCHTSVGGFLSHCGWNSTIESIAAGVPILAWPFFGDQMLNAKCVVEKWRIGLALTGAGGAMSKAVVETRVKDLMEGDLSKELRNRAQNLKHIVVKALSHGGSSSSNLQKLFGHL
B2: ScCGT1 (Odontosoria chinensis; P164T) (protein)
chain: B1 chain with P164T

Key:
[1] = substrate: O=C1CC(O)(c2ccc(O)cc2)Oc2cc(O)cc(O)c21; experiment: HPLC glycosylation assay, Lineweaver-Burk; type: biochemical, Odontosoria chinensis; conditions: 1 mM UDP-glucose, 200 mM MES pH 6.5, 1 mM DTT, 30 °C, 15 min, acceptor varied
Source text: (§1) HPLC glycosylation assay, Lineweaver-Burk on ScCGT1

[2] = substrate: O=C(CCc1ccc(O)cc1)c1c(O)cc(O)cc1O; experiment: HPLC glycosylation assay, Lineweaver-Burk; type: biochemical, Odontosoria chinensis; conditions: 1 mM UDP-glucose, 200 mM MES pH 6.5, 1 mM DTT, 30 °C, 15 min, acceptor varied
Source text: as §1

Row | Protein | Km [1] | Vmax [1] | kcat [1] | kcat/Km [1] | Km [2] | Vmax [2] | kcat [2] | kcat/Km [2]
1 | B1 | 17.5 ± 2.0 µM | 0.0115 µmol/min/mg | 0.0133 ± 0.000167 s⁻¹ | 795 M⁻¹ s⁻¹ | 23.8 ± 2.8 µM | 0.011 µmol/min/mg | 0.0133 ± 0.000333 s⁻¹ | 560 M⁻¹ s⁻¹
2 | B2 | 31.7 ± 2.9 µM | 0.0399 µmol/min/mg | 0.0483 ± 0.001 s⁻¹ | 1520 M⁻¹ s⁻¹ | 29.8 ± 2.5 µM | 0.0334 µmol/min/mg | 0.04 ± 0.000833 s⁻¹ | 1360 M⁻¹ s⁻¹
